Results from the Human Domainome abundance scans (Beltran et al. 2025).

B1: Homeobox expressed in ES cells 1, residues 110 to 165; numbered along this chain, Q9UBX0 (parent)
chain: RPRTAFTQNQIEVLENVFRVNCYPGIDIREDLAQKLNLEEDRIQIWFQNRRAKLKR

Variants of: B1
Assay: abundance fitness (aPCA) (normalised: wild type 0, dead -1); higher = more abundant; growth selection in yeast, the domain comes from the species named
Conditions: Homo sapiens

Abundance fitness: each site, then its substitutions
A5: R 0.132, Y 0.429, D 0.653, S 0.424, H 0.164, N 0.391, F 0.324, I 0.275, L 0.249, W -0.21, Q 0.384, K 0.412, V 0.296, P 0.295, M 0.609, C 0.377, E 0.596
P2: L 0.297, E 0.734, Q 0.386, Y 0.772, G 0.309, D 0.699, V 0.308, K 0.522, A 0.028, C 0.048, T 0.126, H 0.545, R -0.031, M 0.333, F 0.425, W -0.046
R3: D 0.126, C -0.462, A 0.182, N -0.145, K -0.089, L -0.008, T -0.013, Q 0.27, M 0.15, F 0.376, G 0.178, H -0.433, Y 0.682, W -0.674, S -0.181, I 0.485, E 0.24
E12: A -0.257, C -0.341
F6: C -0.673, D -0.599, I -0.075, Y -0.065, S -0.791, V -0.155, G -0.797, Q -0.678, K -0.703, T -0.859, N -0.454, A -0.865, M 0.123, R -0.688, W -0.365
T4: I -0.007, E 0.402, R 0.171, C 0.74, S -0.187, H 0.069, G 0.129, P 0.125, Y -0.163, N -0.067, M 0.634, W -0.501, D -0.192, F 0.052, Q 0.635, A -0.164, V -0.003, K 0.116
Q8: E -0.019, Y -0.264, C -0.183, G -0.416, A 0.158, T -0.244, S 0.002, H -0.373, W -0.598, K -0.179, V 0.122, F -0.441, P -0.082, D -0.094, M -0.168
I11: R -0.472, P -0.598, A -0.344, D -0.072, C -0.628, E 0.274, G -0.891, F -0.648, W -0.292, N 0.091, M -0.652, T -0.187, Q -0.114, K -0.237, Y -0.46, V -0.145
T7: L -0.417, N -0.084, C -0.666, G -0.401, V -0.681, H -0.312, F -0.701, K -0.245, R -0.587, M -0.288, S 0.112, D 0.161, E -0.352, P -0.664, W -0.845, A -0.068
Q10: D -0.287, R -0.662, M 0.017, L -0.744, H -0.594, V -0.279, G -0.574, F -0.993, E -0.278, I -0.404, P -0.922
N9: G -0.103, E 0.288, M 0.381, V 0.017, C -0.293, I 0.118, R -0.042, F -0.243, S -0.004, A -0.169, H 0.148, Y 0.044, D 0.187, L 0.045, P -0.292, K -0.149, T -0.132
R1: G -0.505, Y 0.406, T -0.455, V 0.134, A 0.352, C 0.12, S -0.482
